Positions count from the first letter of the chain named.
T1: human IL-4 (recombinant E. coli-expressed) (human, UniProt P05112 25-153)
T1 sequence (looked up): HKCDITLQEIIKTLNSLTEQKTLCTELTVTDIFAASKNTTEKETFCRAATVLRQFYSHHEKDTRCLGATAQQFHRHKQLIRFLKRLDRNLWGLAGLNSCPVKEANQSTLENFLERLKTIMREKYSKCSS

B1: BPC1090 (bispecific antibody, human IgG1, kappa)
heavy: not shown
light: DIVMTQSPLSLPVTPGEPASISCRSSQNIVHINGNTYLEWYLQKPGQSPRLLIYKISDRFSGVPDRFSGSGSGTDFTLKISRVEADDVGIYYCFQGSHVPWTFGQGTKLEIKRTVAAPSVFIFPPSDEQLKSGTASVVCLLNNFYPREAKVQWKVDNALQSGNSQESVTEQDSKDSTYSLSSTLTLSKADYEKHKVYACEVTHQGLSSPVTKSFNRGEC
notes: mAbdAb; dAb DOM9-155-154 with Kabat 89 G; also called 829H-(TVAAPS)2GS-154 (89G)
B2: BPC1114 (bispecific antibody, human IgG1, kappa)
heavy: not shown
light: B1 light
notes: mAbdAb; dAb Kabat 89 N; also called 829H-(TVAAPS)2GS-154 (89N)
B3: BPC1091 (bispecific antibody, human IgG1, kappa)
heavy: not shown
light: B1 light
notes: mAbdAb; dAb Kabat 89 S; also called 829H-(TVAAPS)2GS-154 (89S)
B4: BPC1110 (bispecific antibody, human IgG1, kappa)
heavy: not shown
light: B1 light
notes: mAbdAb; dAb Kabat 89 W; also called 829H-(TVAAPS)2GS-154 (89W)
B5: BPC1111 (bispecific antibody, human IgG1, kappa)
heavy: not shown
light: B1 light
notes: mAbdAb; dAb Kabat 89 E; also called 829H-(TVAAPS)2GS-154 (89E)
B6: BPC1092 (bispecific antibody, human IgG1, kappa)
heavy: not shown
light: B1 light
notes: mAbdAb; dAb Kabat 89 H; also called 829H-(TVAAPS)2GS-154 (89H)
B7: BPC1095 (bispecific antibody, human IgG1, kappa)
heavy: not shown
light: B1 light
notes: mAbdAb; dAb Kabat 89 T; also called 829H-(TVAAPS)2GS-154 (89T)
B8: BPC1094 (bispecific antibody, human IgG1, kappa)
heavy: not shown
light: B1 light
notes: mAbdAb; dAb Kabat 89 A; also called 829H-(TVAAPS)2GS-154 (89A)
B9: BPC1109 (bispecific antibody, human IgG1, kappa)
heavy: not shown
light: B1 light
notes: mAbdAb; dAb Kabat 89 R; also called 829H-(TVAAPS)2GS-154 (89R)
B10: BPC1116 (bispecific antibody, human IgG1, kappa)
heavy: not shown
light: B1 light
notes: mAbdAb; dAb Kabat 89 V; also called 829H-(TVAAPS)2GS-154 (89V)
B11: BPC1117 (bispecific antibody, human IgG1, kappa)
heavy: not shown
light: B1 light
notes: mAbdAb; dAb Kabat 89 I; also called 829H-(TVAAPS)2GS-154 (89I)
B12: BPC1118 (bispecific antibody, human IgG1, kappa)
heavy: not shown
light: B1 light
notes: mAbdAb; dAb Kabat 89 F; also called 829H-(TVAAPS)2GS-154 (89F)
B13: BPC1108 (bispecific antibody, human IgG1, kappa)
heavy: not shown
light: B1 light
notes: mAbdAb; dAb Kabat 89 C; also called 829H-(TVAAPS)2GS-154 (89C)
B14: A1D98GluL1 (antibody, human IgG1, kappa, V domains shown)
VH: QVQLVQSGAEVKKPGSSVKVSCKASGFYIKDTYMHWVRQAPGQGLEWMGTIDPANGNTKYVPKFQGRVTITADESTSTAYMELSSLRSEDTAVYYCARSIYEDYHYDDYYAMDYWGQGTLVTVSS
VL: DIVMTQSPLSLPVTPGEPASISCRSSQNIVHINGNTYLEWYLQKPGQSPRLLIYKISDRFSGVPDRFSGSGSGTDFTLKISRVEADDVGIYYCFQGSHVPWTFGQGTKLEIKR
notes: CDRH3 variant of A1L1
B15: A1H100A SerL1 (antibody, human IgG1, kappa, V domains shown)
VH: B14 VH with E102D, H105S
VL: B14 VL
notes: CDRH3 variant of A1L1
B16: A1H100A ValL1 (antibody, human IgG1, kappa, V domains shown)
VH: B14 VH with E102D, H105V
VL: B14 VL
notes: CDRH3 variant of A1L1
B17: A1H100A GlnL1 (antibody, human IgG1, kappa, V domains shown)
VH: B14 VH with E102D, H105Q
VL: B14 VL
notes: CDRH3 variant of A1L1
B18: A1Y97PheL1 (antibody, human IgG1, kappa, V domains shown)
VH: B14 VH with Y101F, E102D
VL: B14 VL
notes: CDRH3 variant of A1L1
B19: A1I96ValL1 (antibody, human IgG1, kappa, V domains shown)
VH: B14 VH with I100V, E102D
VL: B14 VL
notes: CDRH3 variant of A1L1
B20: A1H100A ArgL1 (antibody, human IgG1, kappa, V domains shown)
VH: B14 VH with E102D, H105R
VL: B14 VL
notes: CDRH3 variant of A1L1
B21: A1H100A GluL1 (antibody, human IgG1, kappa, V domains shown)
VH: B14 VH with E102D, H105E
VL: B14 VL
notes: CDRH3 variant of A1L1
B22: A1H100A ThrL1 (antibody, human IgG1, kappa, V domains shown)
VH: B14 VH with E102D, H105T
VL: B14 VL
notes: CDRH3 variant of A1L1
B23: A1H100A AlaL1 (antibody, human IgG1, kappa, V domains shown)
VH: B14 VH with E102D, H105A
VL: B14 VL
notes: CDRH3 variant of A1L1
B24: A1S95TrpL1 (antibody, human IgG1, kappa, V domains shown)
VH: B14 VH with S99W, E102D
VL: B14 VL
notes: CDRH3 variant of A1L1
B25: BPC3214 (bispecific antibody, human IgG1, kappa)
heavy: not shown
light: DIQMTQSPSSLSASVGDRVTITCRSSQNIVHINGNTYLEWYQQKPGKAPKLLIYKISDRFSGVPSRFSGSGSGTDFTLTISSLQPEDFATYYCFQGSHVPWTFGQGTKLEIKRTVAAPSVFIFPPSDEQLKSGTASVVCLLNNFYPREAKVQWKVDNALQSGNSQESVTEQDSKDSTYSLSSTLTLSKADYEKHKVYACEVTHQGLSSPVTKSFNRGEC
notes: mAbdAb with the re-humanised light chain P0
B26: BPC3215 (bispecific antibody, human IgG1, kappa)
heavy: not shown
light: B25 light with I2V, Q3L
notes: mAbdAb with the re-humanised light chain P1

molecular target: T1, human IL-4 (recombinant E. …); assay: Biacore T100 SPR, Protein A capture (CM5), human IL4 analyte, 1:1 fit
Method: Protein A was immobilised on a CM5 chip by primary amine coupling; this surface was used as a capture surface for the antibody molecules to be tested.
All binding curves were double referenced with a 0 nM injection (i.e. buffer alone). Regeneration of the Protein A surface was with 50 mM NaOH. The assay was run at 25° C. using HBS-EP as running buffer. The data was fitted to 1:1 model inherent to the Biacore T100 analysis software.

Row | Kd [nM] | koff [s⁻¹] | kon [M⁻¹ s⁻¹] | Binder
1 | 0.096 | 0.000416 | 4.34e+06 | B1
2 | 0.656 | 0.00255 | 3.89e+06 | B2
3 | 0.168 | 0.00102 | 6.05e+06 | B3
4 | 1.63 | 0.00173 | 1.07e+06 | B4
5 | 0.037 | 0.000111 | 2.98e+06 | B5
6 | 1.71 | 0.00389 | 2.27e+06 | B6
7 | 4.69 | 0.0318 | 6.78e+06 | B7
8 | 2.08 | 0.00304 | 1.46e+06 | B8
9 | 147 | 0.177 | 1.2e+06 | B9
10 | 0.402 | 0.00274 | 6.82e+06 | B10
11 | 0.231 | 0.000913 | 3.95e+06 | B11
12 | 0.405 | 0.00258 | 6.39e+06 | B12
13 | 0.281 | 0.00123 | 4.38e+06 | B13

molecular target: T1, human IL-4 (recombinant E. …); assay: as above; remark: another data set of the same source
Method: Purified mAbs and mAbdAb constructs were tested in a BIAcore assay to determine whether the mutation of position 89 had any effect on the binding of the dAb to IL-4.
Protein A was immobilised on a CM5 chip by primary amine coupling; this surface was used as a capture surface for the antibody molecules to be tested. […] Regeneration of the […] surface was achieved using 50 mM NaOH. The assay was run at 25° C. using HBS-EP as running buffer. The data was fitted to 1:1 model inherent to the Biacore T100 analysis software.

Row | Kd [nM] | koff [s⁻¹] | kon [M⁻¹ s⁻¹] | Binder
14 | 0.152 | 0.000455 | 3e+06 | B1
15 | 0.244 | 0.000966 | 3.96e+06 | B3
16 | 0.031 | 0.000104 | 3.37e+06 | B5
17 | 1.79 | 0.00534 | 2.98e+06 | B6
18 | 5.76 | 0.0144 | 2.5e+06 | B7
19 | 1.95 | 0.00373 | 1.91e+06 | B8

molecular target: T2, human IL-13 (recombinant E. coli-expressed) (human, UniProt P35225 35-146); assay: ProteOn XPR36 SPR, mAb (supernatant) captured on anti-human IgG, IL13 analyte, 1:1 fit
T2 construct: also called hIL-13
T2 sequence (P35225 other isoform, or with tags, fused parts or gaps limits assumed): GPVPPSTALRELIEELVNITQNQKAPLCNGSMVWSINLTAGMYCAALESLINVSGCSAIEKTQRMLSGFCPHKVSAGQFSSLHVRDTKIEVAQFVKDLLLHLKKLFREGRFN
Method: The initial screen of CDRH3 mutants was carried out on the ProteOn XPR36 (Biorad). […] 3M MgCl₂ was used to regenerate the capture surface, removing the bound CDRH3 mutant antibodies ready for another cycle of capture and analyte injection. The data was fitted to the 1:1 model using the software inherent to the machine.

Row | Kd [nM] | Binder
20 | 0.873 | B14
21 | 0.131 | B15
22 | 0.112 | B16
23 | 0.195 | B17
24 | 0.683 | B18
25 | 0.395 | B19
26 | 0.256 | B20
27 | 0.11 | B21
28 | 0.158 | B22

molecular target: T2, human IL-13 (recombinant E. …); assay: Biacore T100 SPR, mAb (supernatant) captured on anti-human IgG, IL13 analyte, 1:1 fit
Source text: Table 1 details the overall affinities (equilibrium dissociation constant KD) for the selected constructs from the ProteOn screen and the T100 run

Row | Kd [nM] | Binder
29 | 0.779 | B14
30 | 0.174 | B15
31 | 0.152 | B16
32 | 0.172 | B23
33 | 0.278 | B17
34 | 0.618 | B18
35 | 0.696 | B19
36 | 0.307 | B20
37 | 0.216 | B24
38 | 0.195 | B21
39 | 0.211 | B22

molecular target: T2, human IL-13 (recombinant E. …); assay: Biacore T100 SPR, Protein A capture (CM5), human IL13 analyte, 1:1 fit
Method: (§1) Protein A was immobilised on a CM5 chip by primary amine coupling; this surface was used as a capture surface for the antibody molecules to be tested. […] All binding curves were double referenced with a 0 nM injection (i.e. buffer alone).
(§2) Regeneration of the Protein A surface was with 50 mM NaOH. The assay was run at 25° C. using HBS-EP as running buffer. The data was fitted to 1:1 model inherent to the Biacore T100 analysis software.

Row | Kd [nM] | koff [s⁻¹] | kon [M⁻¹ s⁻¹] | Binder
40 | 0.093 | 7.18e-05 | 775000 | B25
41 | 0.064 | 5.23e-05 | 822000 | B26

molecular target: T3, cyno IL-13 (recombinant E. coli-expressed) (cynomolgus, UniProt Q0PW92 21-132); assay: Biacore T100 SPR, Protein A capture (CM5), cyno IL13 analyte, 1:1 fit; 'Impossible off-rates'
T3 construct: also called cynomolgus IL-13
Method: as §1, §2

Row | Kd [nM] | koff [s⁻¹] | kon [M⁻¹ s⁻¹] | Binder
42 | < 0.0311 | < 1e-05 | 321000 | B25
43 | 0.00955 | 3.13e-06 | 328000 | B26

Source: patent publication US20120082682A1 (GlaxoSmithKline, published 2012)
